Data taken from the supplement of paper PMC9732359.
± gives the uncertainty stated by the source.

Test: protein stability index of a GFP-peptide fusion (yeast GPS) (PSI 1-4); higher = more stable; sorted into four equal gates, so the index is relative within each strain
Procedure, shortened: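 Yeast carrying a pooled library were grown to mid-log phase in leucine-free medium. Each library plasmid expresses Cherry and has a tiled 17-residue yeast protein peptide fused downstream of GFP. Cells were sorted into four equal gates by GFP/Cherry ratio, and plasmids from each gate were PCR-amplified, Illumina-sequenced and assigned to strains by barcode. Summing, across gates, the read frequency times the gate number gave each peptide's protein stability index.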

Sequence | protein stability index (doa10∆) | protein stability index (pdr5∆) | protein stability index (san1∆) | protein stability index (ubr1∆)
ILEEGSSGMGAFGGSGG [RPN10] | 3.36 ± 0.13 | 3 ± 0.16 | 3.04 ± 0.15 | 3.28 ± 0.081
VPSHVPQVLINRDPVKH [SIR2] | 2.52 ± 0.13 | 3 ± 0.088 | 3.06 ± 0.12 | 2.76 ± 0.098
MSNQALYEKLEQTRTIL [SRB6] | 3.11 ± 0.3 |  |  | 
SQTQLENANAANNGAAF [MED2] | 2.71 ± 0.054 | 2.75 ± 0.051 | 2.85 ± 0.053 | 1.74 ± 0.032
ILNEVFTNPSIVKVFHG [RRP6] | 1.24 ± 0.083 | 1.42 ± 0.075 | 1.2 ± 0.18 | 1.29 ± 0.05
NTLIPESSLTISLYFND [ECM29] | 1.92 ± 0.046 | 2.19 ± 0.052 | 1.99 ± 0.061 | 2.42 ± 0.043
SRPLKKVKILEQIDENW [SWI3] | 2.94 ± 0.077 | 3.11 ± 0.067 | 2.82 ± 0.072 | 2.99 ± 0.044
FDSTAFNATVDETKGFD [MED2] | 3.25 ± 0.06 | 3.28 ± 0.063 | 3.15 ± 0.063 | 3.21 ± 0.046
KTQLGSTMTEPVKQSFI [GAL11] | 2.81 ± 0.051 | 2.9 ± 0.06 | 2.56 ± 0.053 | 2.85 ± 0.037
KGRAYKRLLYTRRFVNV [RPS30A] | 2.38 ± 0.058 | 2.12 ± 0.064 | 2.81 ± 0.069 | 2.76 ± 0.039
WTVLFRKHHKKGITEEV [RPL24A] | 3.08 ± 0.12 | 2.1 ± 0.13 | 1.82 ± 0.15 | 2.64 ± 0.079
GEVMKELSEEKYIVKAS [RPT4] | 3.25 ± 0.061 | 3.38 ± 0.072 | 3.41 ± 0.043 | 3.3 ± 0.042
NGLGTSHINTNVGDNNS [ARP7] | 3.13 ± 0.12 | 2.77 ± 0.099 | 2.74 ± 0.082 | 3.28 ± 0.11
MAAQKSFRIKQKMAKAK [RPL39] | 2.75 ± 0.072 | 2.97 ± 0.11 | 2.25 ± 0.083 | 2.74 ± 0.08
EIMYTGVSISVSFNSKQ [SMC3] | 1.61 ± 0.089 | 1.99 ± 0.07 | 2.83 ± 0.087 | 2.29 ± 0.1
AKLESLLENSVDKNFDK [MTW1] | 3.39 ± 0.06 | 3.24 ± 0.076 | 3.34 ± 0.048 | 3.32 ± 0.066
TCPGLSLTDVAFFTYDA [ECM29] | 3.36 ± 0.14 | 3.05 ± 0.091 | 2.78 ± 0.072 | 3.11 ± 0.099
ETKADGILLETISVPQI [RRP6] | 2.58 ± 0.076 | 2.52 ± 0.056 | 2.51 ± 0.061 | 2.26 ± 0.053
TVMYQRRSKMNPLWNAI [PRE4] | 2.83 ± 0.084 | 3.18 ± 0.11 | 2.66 ± 0.089 | 3.09 ± 0.072

Sequence | protein stability index (doa10∆) | protein stability index (pdr5∆) | protein stability index (san1∆) | protein stability index (ubr1∆)
KIKDVQQQIESNEEQRN [SMC3] | 3.22 ± 0.091 | 3.17 ± 0.082 | 3.18 ± 0.076 | 2.85 ± 0.11
ASKLAAYNKKSTISARE [HTB1] | 3.22 ± 0.12 |  |  | 3.21 ± 0.11
DVVYALKRQGRTLYGFG [HHF1] | 2.77 ± 0.083 | 2.8 ± 0.11 | 2.34 ± 0.14 | 2.38 ± 0.083
KNGAQDLVLQILEDTAT [RRI2] | 3.37 ± 0.08 | 3.3 ± 0.095 | 3.33 ± 0.054 | 3.18 ± 0.072
PYMPYYYYYHPMNAPTP [DSN1] | 2.52 ± 0.043 | 2.71 ± 0.043 | 2.64 ± 0.045 | 2.69 ± 0.032
LRLKPGRKYTTLGKLST [RPL16B] | 2.69 ± 0.057 | 2.64 ± 0.062 | 3.03 ± 0.036 | 2.97 ± 0.037
AKKQNYKLTNDEEGIFS [YCG1] | 3.23 ± 0.098 | 3.45 ± 0.1 | 3.15 ± 0.074 | 3.19 ± 0.075
RKWMEEKADYERELISN [YIL149C/MLP2] | 3.23 ± 0.045 | 3.35 ± 0.086 | 3.11 ± 0.04 | 3.31 ± 0.063
KEQENITIQDLLFPKST [DPB4] | 3.05 ± 0.1 | 2.64 ± 0.13 | 2.52 ± 0.087 | 2.75 ± 0.086
YTKPYPNFEASFVHGVV [SMC2] | 2.53 ± 0.15 | 2.32 ± 0.13 | 2.47 ± 0.26 | 2.33 ± 0.14
DTDSKPSSQSQNDTPMF [YLR018C/POM34] | 2.89 ± 0.044 | 3.17 ± 0.048 | 3 ± 0.039 | 2.95 ± 0.034
LMCLSSKYCEKSLPLLI [YCS4] | 2.45 ± 0.1 | 2.71 ± 0.076 | 2.39 ± 0.089 | 2.39 ± 0.052
EVDEKPTETYSDVGGLD [RPT5] | 3.35 ± 0.082 | 3.3 ± 0.07 | 3.16 ± 0.058 | 3.23 ± 0.059
MGIVQDTLCGIRKLTLR [RPO21] | 2.89 ± 0.068 | 1.74 ± 0.053 | 1.87 ± 0.068 | 1.64 ± 0.053
YNPKMIDDRDYVGNKRL [RET1] |  |  |  | 3.49 ± 0.26
EERSNNLLTPQPTNFTT [MCD1] | 3.02 ± 0.061 | 3.11 ± 0.063 | 2.91 ± 0.061 | 3.12 ± 0.05
HDKNIQKLLKQLDSDAN [ISW2] | 2.58 ± 0.049 | 2.52 ± 0.049 | 2.69 ± 0.053 | 2.93 ± 0.032
NVNMTVNTMGTGGQTID [MED6] | 3.23 ± 0.3 | 3.44 ± 0.12 | 3.06 ± 0.14 | 3.37 ± 0.29
VIFLSSLLTLVGSVTYQ [YJL039C/NUP192] | 1.39 ± 0.14 | 1.21 ± 0.14 | 1.14 ± 0.28 | 1.2 ± 0.13

Sequence | protein stability index (doa10∆) | protein stability index (pdr5∆) | protein stability index (san1∆) | protein stability index (ubr1∆)
RSEFIESLLNWINRSDG [YJR042W/NUP85] |  | 3.11 ± 0.15 | 2.77 ± 0.24 | 3.22 ± 0.22
TGVMIGIDLAYNMYDAY [PRP8] | 2.5 ± 0.064 | 2.69 ± 0.053 | 2.82 ± 0.066 | 2.84 ± 0.051
LNNTHVISSGPLAAGNF [RPC53] | 2.74 ± 0.086 | 3 ± 0.1 | 2.69 ± 0.074 | 2.49 ± 0.049
KMVAKGLNDLVEQYKFR [BRR2] | 3.35 ± 0.12 | 3.17 ± 0.12 | 3.03 ± 0.11 | 3.14 ± 0.096
ADYWTHAYRDVLAQYHE [SNF6] | 3.02 ± 0.071 | 3.23 ± 0.08 | 3.06 ± 0.058 | 2.81 ± 0.049
NDIPQTESPLKTVDSSI [SSN2] | 2.99 ± 0.071 | 3.01 ± 0.055 | 2.81 ± 0.061 | 3.03 ± 0.032
DVVAKLEAKRKVSSAEY [RPL16A] | 1.69 ± 0.11 | 1.7 ± 0.071 |  | 
LADKLENYEGKQDKTLQ [YIL149C/MLP2] | 3.15 ± 0.18 | 3.22 ± 0.22 | 2.92 ± 0.15 | 3.17 ± 0.22
PAQKDSSVVSEPKKPSF [YOR098C/NUP1] | 2.94 ± 0.061 | 2.71 ± 0.05 | 2.3 ± 0.076 | 2.89 ± 0.042
EDGMIIDVNLNFARQLL [RRP40] | 3.15 ± 0.086 | 3.23 ± 0.074 | 3.26 ± 0.079 | 3.11 ± 0.063
GMYALRERRIHVTQEDF [RPT6] | 1.81 ± 0.074 | 1.94 ± 0.054 | 1.59 ± 0.099 | 2.49 ± 0.1
VVGLGERVSPTDIEEGM [RPT1] |  | 3.33 ± 0.24 |  | 
NIKPVEQHHINNLKNSG [GAL11] | 2.69 ± 0.062 | 2.59 ± 0.049 | 2.36 ± 0.069 | 2.47 ± 0.041
SIWQVKDQLPDLESMGL [MED7] | 2.81 ± 0.11 | 3.04 ± 0.079 | 2.93 ± 0.12 | 3.35 ± 0.097
PPSLKIIDGPKALILAP [PRP28] | 1.62 ± 0.055 | 1.77 ± 0.07 | 1.51 ± 0.12 | 1.63 ± 0.039
PSSLNSDKIPYVAPTKK [SRB4] | 2.24 ± 0.073 | 2.59 ± 0.1 | 2.15 ± 0.086 | 2.09 ± 0.063
FVVPTFGQDVSPMINST [SNM1] | 2.94 ± 0.084 | 2.89 ± 0.085 | 2.89 ± 0.056 | 2.84 ± 0.067
KTSKRTKRWYKNAGLGF [RPS11A] | 3.3 ± 0.091 | 2.84 ± 0.12 | 3.17 ± 0.11 | 3.4 ± 0.085
